For 116 sequences, protein stability index results are on record in the supplement of paper PMC10724198.

± gives the standard deviation of the averaged measurements.
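Note: PSI is a weighted mean of sequencing reads over stability bins, variants kept only with over 10 reads, mCherry proximal and sfGFP distal, peptide attached via GGGS linker.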

The data set concerns Saccharomyces cerevisiae. The experiment in a line: protein stability index of tFT-peptide fusion (C-terminal peptide) (PSI (0-1 scale)); higher = more stable (slower turnover). The conditions noted are these: genetic background: wild type; temperature: 30 C.
Sequence IFRFHRSRNSKY showed a protein stability index of 0.722 ± 0.029. As to IFWGFSFRGGGC, the protein stability index amounted to 0.656 ± 0.029. IGDRQIDFFKKD showed a protein stability index of 0.7073 ± 0.0024. IGEAWERGQEAK had a protein stability index of 0.679 ± 0.027. For IGITWDVFLGLG, the protein stability index is 0.705 ± 0.03. The result for IGKLDYVCWRVL reads 0.602 ± 0.029. As for IGLPCSSGCCCH, the figure is 0.702 ± 0.088; as for IGLVRPSGTQQT, 0.6764 ± 0.006. IGLVVVRPKIMI: the protein stability index amounted to 0.558 ± 0.012. In turn, IGNFTTEVDGWG returned a protein stability index of 0.662 ± 0.036. IGRSPRVLSATP came in with a protein stability index of 0.6534 ± 0.0059. For IGSFTRTTKKFK, the protein stability index amounted to 0.723 ± 0.0073. Consider IGSHDTRVVKMD, for which the protein stability index stood at 0.731 ± 0.059. Take IGSLASRSALLL: the protein stability index was found to be 0.676 ± 0.0083. IGVAARPWAGAQ returned a protein stability index of 0.706 ± 0.02.

Consider IGVNEDSAIVCM, for which the protein stability index stood at 0.562 ± 0.024. Regarding IGYHGRSLGWKR, the protein stability index is 0.635 ± 0.082.

For the sequence IHDGKKEGKSQK, the protein stability index is 0.695 ± 0.017. IHLALYKYEVMG registered a protein stability index of 0.584 ± 0.017. Sequence IHQQEVKSRICT showed a protein stability index of 0.592 ± 0.031. In turn, IHSPSAYLQPSF came in with a protein stability index of 0.761 ± 0.029. IICDIFYCSTVS returned a protein stability index of 0.644 ± 0.01.

In turn, IIDCQVSFSFLI came in with a protein stability index of 0.588 ± 0.063. As for IIIEYNINRKKI, the figure is 0.611 ± 0.05; as for IIKMNERTLTKI, 0.692 ± 0.099. IKGSLILRGRGE showed a protein stability index of 0.657 ± 0.025. For the sequence IKKEKKQKKKKG, the protein stability index was 0.665 ± 0.098. In the case of IKKKKKEKGDST, the protein stability index is 0.713 ± 0.082.

Regarding IKKKKKKGIILD, the protein stability index stood at 0.71 ± 0.05.

Consider IKKKKKKKKKRD, for which the protein stability index was determined as 0.652 ± 0.016. Take IKKKKKKTPKNM: the protein stability index came to 0.714 ± 0.062. The result for IKKKQKIPKNAK reads 0.678 ± 0.013; that for IKKNHKENKRKE, 0.666 ± 0.016; that for IKLVVLGPLVWF, 0.625 ± 0.018. In turn, IKNMWLACFGLY gave a protein stability index of 0.667 ± 0.027. As for IKNQNKKKKNKK, the figure is 0.689 ± 0.05. For IKPVETEKRECK, the protein stability index turned out to be 0.668 ± 0.094. In turn, IKSDCKDRRKRR came in with a protein stability index of 0.7233 ± 0.0072.

IKTKREKNGVSS returned a protein stability index of 0.722 ± 0.016. IKVIACSEPIPG displayed a protein stability index of 0.592 ± 0.021.

ILCLAPLSCYPV registered a protein stability index of 0.832 ± 0.055. In the case of ILCPGLYQFLVF, the protein stability index came to 0.529 ± 0.038. As for ILDSPMWQPVSM, the protein stability index amounted to 0.727 ± 0.056. As to ILFSSDLNSFSW, the protein stability index was determined as 0.744 ± 0.03.

ILQWEESRKGGI showed a protein stability index of 0.715 ± 0.054. ILRGRDLPHGLG came in with a protein stability index of 0.688 ± 0.03. ILRLSLPYEGYI returned a protein stability index of 0.645 ± 0.032. Consider IMGIIKFKSYRI, for which the protein stability index amounted to 0.703 ± 0.12. The sequence IMKQHNYIGFVF yielded a protein stability index of 0.608 ± 0.062.

The sequence IMNNSKIYRSVG gave a protein stability index of 0.6593 ± 0.0021.

Sequence IMVLKAAVSKQE registered a protein stability index of 0.69 ± 0.09. Sequence INGICDPQANSR returned a protein stability index of 0.71 ± 0.027. The result for INKATYTQIYKN reads 0.667 ± 0.021; that for INQEKKLKNNKK, 0.70627 ± 0.0004; that for INWIHERNDKSI, 0.734 ± 0.027. As for IPCKVCQSLIPP, the figure is 0.611 ± 0.12. On to IPGSPIATARPG, for which the protein stability index worked out at 0.665 ± 0.025. Sequence IPPFLVSLPFLP had a protein stability index of 0.702 ± 0.018. For IPSCAGLPLSLS, the protein stability index is 0.7134 ± 0.0019. The result for IPSCSTPAPHLP reads 0.677 ± 0.022. The result for IQAVSRDYVELR reads 0.652 ± 0.031; that for IQKNKQEVKTNI, 0.685 ± 0.1; that for IRDKTSIRKLEK, 0.677 ± 0.058. As for IRFCILRRLGRH, the figure is 0.588 ± 0.028; as for IRKGKKIRKKEN, 0.641 ± 0.037; as for IRLPHPPLPPSP, 0.6673 ± 0.0025. The sequence IRPRRFSPGSTR yielded a protein stability index of 0.7 ± 0.043.

In turn, IRPWPLDPPPGR showed a protein stability index of 0.78 ± 0.08. Sequence IRRAGPMVAKGK returned a protein stability index of 0.649 ± 0.086.

Take ISAPLPTLLSVL: the protein stability index came out at 0.559 ± 0.041. As for ISCVSFCCLFDL, the figure is 0.601 ± 0.0022; as for ISFGSKLPHHLP, 0.657 ± 0.11. As for ISGDGWNFVGIV, the protein stability index worked out at 0.715 ± 0.097. As for ISGRRPWGFGGE, the figure is 0.642 ± 0.041; as for ISPQEPLVNTTN, 0.665 ± 0.018; as for ISPSASTSRPFQ, 0.697 ± 0.11. The sequence ISRLLMAMESRN had a protein stability index of 0.653 ± 0.024. As for ISSNMIVMAICG, the protein stability index is 0.6 ± 0.03. As for ISSTGYQARHRG, the figure is 0.688 ± 0.03; as for ISVDNTKFLFRS, 0.687 ± 0.023. As for ISYIGCCKIVLT, the protein stability index amounted to 0.553 ± 0.0086. Take ITRLSPPSSVRL: the protein stability index stood at 0.7 ± 0.039. As for ITTLGSVSRDSR, the figure is 0.722 ± 0.062. In turn, IVGAGVFEERWG gave a protein stability index of 0.77 ± 0.023.

In turn, IVGLGLENGKEI had a protein stability index of 0.704 ± 0.042.

As for IVLAGVCGGVVG, the protein stability index turned out to be 0.733 ± 0.29.

Sequence IVLLSLSCRSPG displayed a protein stability index of 0.594 ± 0.014. The result for IVQETKYFVRRS reads 0.685 ± 0.082; that for IVRTMLKLFVDV, 0.5827 ± 0.0037. As for IVSGVSVHLGVG, the protein stability index turned out to be 0.6115 ± 0.0029. IVVRPAGGGTQS registered a protein stability index of 0.663 ± 0.019. The result for IWGKREDKNVYR reads 0.71 ± 0.025; that for IWPGASLALLTS, 0.606 ± 0.011; that for IWRPGVAQSGLA, 0.7205 ± 0.0055.

IYAQFCSLYDHP showed a protein stability index of 0.702 ± 0.013. Turning to IYERTEENKRVN, the protein stability index stood at 0.591 ± 0.0088.

For IYSFFHHRFVTV, the protein stability index amounted to 0.546 ± 0.0081.

Consider KAASSLSRPAHL, for which the protein stability index amounted to 0.734 ± 0.074. As to KAIVKKCTDSED, the protein stability index amounted to 0.679 ± 0.011.

KALNLAAAILYG: the protein stability index came out at 0.638 ± 0.015. The sequence KALQRKCRKRHK came in with a protein stability index of 0.673 ± 0.039.

KCKGTCESRRGI gave a protein stability index of 0.833 ± 0.034. Turning to KCPRPDATLYQS, the protein stability index is 0.721 ± 0.042. The result for KDKKKENKNNGE reads 0.6787 ± 0.0036; that for KDKSQKKERQKT, 0.664 ± 0.029. Consider KDQRAKRRRREE, for which the protein stability index turned out to be 0.679 ± 0.08. In the case of KDRRNKNKRQEY, the protein stability index came out at 0.633 ± 0.012.

Regarding KECGICGAVVGL, the protein stability index amounted to 0.63 ± 0.092. In turn, KEENKKKKKKRI came in with a protein stability index of 0.755 ± 0.081.

Consider KEGRKKKRQINT, for which the protein stability index stood at 0.803 ± 0.076. KEHKSQRSRVWR had a protein stability index of 0.719 ± 0.011. Consider KEKKAKKSRKKR, for which the protein stability index was 0.665 ± 0.084. KEKKNNRQRKER showed a protein stability index of 0.642 ± 0.016.

KELPAGRQSEPD came in with a protein stability index of 0.636 ± 0.034. As for KERKHKRTRQQT, the figure is 0.666 ± 0.021; as for KFNFVRMSSLRL, 0.692 ± 0.16.
